Drawing on the supplement of paper PMC9428881, this text covers background-corrected fluorescence for 29 sequences.

A short description of this data set: background-corrected fluorescence of 3'-dye-labeled ssDNA relative to brightest sequence (3'-GCGCG) (fraction); higher = brighter dye fluorescence (less quenching). The gist of the method:
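Light-directed phosphoramidite synthesis on glass slides produced single-stranded DNA carrying a 3' Cy3 or Cy5 dye next to each of 1024 permuted pentamers. After a 2 h acetonitrile wash at r.t., arrays were scanned at 532 or 635 nm both before and after overnight deprotection in ethylenediamine/ethanol. Every value is the mean of 10 features per array over at least 3 syntheses. Fluorescence had unlabeled-oligo background subtracted and was scaled to the brightest sequence.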

± gives the standard error.

For the sequence “TTTTTTCATGCTGATCATCATTTTTTTTTTTTTTTGACGG [GGCAG]”, the background-corrected fluorescence (dye: Cy3 (3' terminal)) turned out to be 0.65 ± 0.026 and the background-corrected fluorescence (dye: Cy5 (3' terminal)) was determined as 0.585 ± 0.076.

As for “TTTTTTCATGCTGATCATGATTTTTTTTTTTTTTTGACGC [CGCAG]”, the background-corrected fluorescence worked out at 0.577 ± 0.062 (dye: Cy3 (3' terminal)) and 0.462 ± 0.065 (dye: Cy5 (3' terminal)).

Consider “TTTTTTCATGCTGATCATGCTTTTTTTTTTTTTTTGACGA [AGCAG]”, for which the background-corrected fluorescence turned out to be 0.642 ± 0.026 (dye: Cy3 (3' terminal)) and 0.52 ± 0.025 (dye: Cy5 (3' terminal)).

“TTTTTTCATGCTGATGAGCATTTTTTTTTTTTTTTGACCT [TCCAG]” came in with a background-corrected fluorescence (dye: Cy3 (3' terminal)) of 0.453 ± 0.026 and a background-corrected fluorescence (dye: Cy5 (3' terminal)) of 0.34 ± 0.026.

With “TTTTTTCATGCTGATGATCATTTTTTTTTTTTTTTGACCG [GCCAG]”, the background-corrected fluorescence runs as follows: (dye: Cy3 (3' terminal)) 0.524 ± 0.032; (dye: Cy5 (3' terminal)) 0.428 ± 0.043.

As to “TTTTTTCATGCTGATGATGATTTTTTTTTTTTTTTGACCC [CCCAG]”, the background-corrected fluorescence worked out at 0.387 ± 0.0053 (dye: Cy3 (3' terminal)) and 0.282 ± 0.022 (dye: Cy5 (3' terminal)).

In turn, “TTTTTTCATGCTGATGATGCTTTTTTTTTTTTTTTGACCA [ACCAG]” showed a background-corrected fluorescence (dye: Cy3 (3' terminal)) of 0.499 ± 0.022 and a background-corrected fluorescence (dye: Cy5 (3' terminal)) of 0.394 ± 0.024.

As for “TTTTTTCATGCTGATGCGCATTTTTTTTTTTTTTTGACAT [TACAG]”, the background-corrected fluorescence is, setting by setting: (dye: Cy3 (3' terminal)) 0.536 ± 0.019; (dye: Cy5 (3' terminal)) 0.388 ± 0.025.

As for “TTTTTTCATGCTGATGCTCATTTTTTTTTTTTTTTGACAG”, the background-corrected fluorescence is, setting by setting: (dye: Cy3 (3' terminal)) 0.547 ± 0.023; (dye: Cy5 (3' terminal)) 0.423 ± 0.036.

Regarding “TTTTTTCATGCTGATGCTGATTTTTTTTTTTTTTTGACAC [CACAG]”, the background-corrected fluorescence reads like this: (dye: Cy3 (3' terminal)) 0.42 ± 0.0058; (dye: Cy5 (3' terminal)) 0.321 ± 0.044.

As to “TTTTTTCATGCTGATGCTGCTTTTTTTTTTTTTTTGACAA [AACAG]”, the background-corrected fluorescence was 0.537 ± 0.032 (dye: Cy3 (3' terminal)) and 0.415 ± 0.022 (dye: Cy5 (3' terminal)).

With “TTTTTTCATGCTGCGCAGCATTTTTTTTTTTTTTTGAATT [TTAAG]”, the background-corrected fluorescence runs as follows: (dye: Cy3 (3' terminal)) 0.5465 ± 0.0052; (dye: Cy5 (3' terminal)) 0.382 ± 0.03.

Regarding “TTTTTTCATGCTGCGCATCATTTTTTTTTTTTTTTGAATG [GTAAG]”, the background-corrected fluorescence runs as follows: (dye: Cy3 (3' terminal)) 0.489 ± 0.022; (dye: Cy5 (3' terminal)) 0.367 ± 0.029.

With “TTTTTTCATGCTGCGCATGATTTTTTTTTTTTTTTGAATC [CTAAG]”, the background-corrected fluorescence was 0.433 ± 0.031 (dye: Cy3 (3' terminal)) and 0.311 ± 0.025 (dye: Cy5 (3' terminal)).

Turning to “TTTTTTCATGCTGCGCATGCTTTTTTTTTTTTTTTGAATA [ATAAG]”, the background-corrected fluorescence by setting is: (dye: Cy3 (3' terminal)) 0.553 ± 0.025; (dye: Cy5 (3' terminal)) 0.42 ± 0.053.

Consider “TTTTTTCATGCTGCTCAGCATTTTTTTTTTTTTTTGAAGT”, for which the background-corrected fluorescence by setting is: (dye: Cy3 (3' terminal)) 0.661 ± 0.012; (dye: Cy5 (3' terminal)) 0.529 ± 0.056.

Consider “TTTTTTCATGCTGCTCATCATTTTTTTTTTTTTTTGAAGG [GGAAG]”, for which the background-corrected fluorescence amounted to 0.607 ± 0.026 (dye: Cy3 (3' terminal)) and 0.512 ± 0.025 (dye: Cy5 (3' terminal)).

Consider “TTTTTTCATGCTGCTCATGATTTTTTTTTTTTTTTGAAGC [CGAAG]”, for which the background-corrected fluorescence worked out at 0.547 ± 0.024 (dye: Cy3 (3' terminal)) and 0.397 ± 0.027 (dye: Cy5 (3' terminal)).

“TTTTTTCATGCTGCTCATGCTTTTTTTTTTTTTTTGAAGA [AGAAG]”: the background-corrected fluorescence was found to be 0.6356 ± 0.0052 (dye: Cy3 (3' terminal)) and 0.582 ± 0.029 (dye: Cy5 (3' terminal)).

On to “TTTTTTCATGCTGCTGAGCATTTTTTTTTTTTTTTGAACT [TCAAG]”, for which the background-corrected fluorescence is 0.5 ± 0.016 (dye: Cy3 (3' terminal)) and 0.36 ± 0.025 (dye: Cy5 (3' terminal)).

With “TTTTTTCATGCTGCTGATCATTTTTTTTTTTTTTTGAACG [GCAAG]”, the background-corrected fluorescence is, setting by setting: (dye: Cy3 (3' terminal)) 0.541 ± 0.028; (dye: Cy5 (3' terminal)) 0.404 ± 0.023.

In the case of “TTTTTTCATGCTGCTGATGATTTTTTTTTTTTTTTGAACC [CCAAG]”, the background-corrected fluorescence is, setting by setting: (dye: Cy3 (3' terminal)) 0.41 ± 0.033; (dye: Cy5 (3' terminal)) 0.288 ± 0.027.

With “TTTTTTCATGCTGCTGATGCTTTTTTTTTTTTTTTGAACA [ACAAG]”, the background-corrected fluorescence (dye: Cy3 (3' terminal)) worked out at 0.505 ± 0.013 and the background-corrected fluorescence (dye: Cy5 (3' terminal)) was 0.394 ± 0.024.

Regarding “TTTTTTCATGCTGCTGCGCATTTTTTTTTTTTTTTGAAAT [TAAAG]”, the background-corrected fluorescence is, setting by setting: (dye: Cy3 (3' terminal)) 0.574 ± 0.015; (dye: Cy5 (3' terminal)) 0.419 ± 0.025.

Consider “TTTTTTCATGCTGCTGCTCATTTTTTTTTTTTTTTGAAAG”, for which the background-corrected fluorescence (dye: Cy3 (3' terminal)) came to 0.574 ± 0.028 and the background-corrected fluorescence (dye: Cy5 (3' terminal)) was 0.431 ± 0.056.

As to “TTTTTTCATGCTGCTGCTGATTTTTTTTTTTTTTTGAAAC [CAAAG]”, the background-corrected fluorescence (dye: Cy3 (3' terminal)) was 0.43 ± 0.023 and the background-corrected fluorescence (dye: Cy5 (3' terminal)) stood at 0.333 ± 0.045.

With “TTTTTTCATGCTGCTGCTGCTTTTTTTTTTTTTTTGAAAA [AAAAG]”, the background-corrected fluorescence was determined as 0.63 ± 0.012 (dye: Cy3 (3' terminal)) and 0.491 ± 0.052 (dye: Cy5 (3' terminal)).

“TTTTTTGAGCAGCAGCAGCATTTTTTTTTTTTTTTCTTTT”: the background-corrected fluorescence by setting is: (dye: Cy3 (3' terminal)) 0.494 ± 0.021; (dye: Cy5 (3' terminal)) 0.357 ± 0.035.

Turning to “TTTTTTGAGCAGCAGCATCATTTTTTTTTTTTTTTCTTTG [GTTTC]”, the background-corrected fluorescence turned out to be 0.498 ± 0.024 (dye: Cy3 (3' terminal)) and 0.343 ± 0.027 (dye: Cy5 (3' terminal)).
